Molecular target: T1, STREP2-FLAG-tagged RCC1L^V1 (human, UniProt Q96I51 38-464)
T1 construct: RCC1L (WBSCR16), human, isoform RCC1L^V1, the principal isoform, 464 amino acids as precursor; isoform cDNA expressed in cells and recovered from purified mitochondria; pcDNA5/FRT/TO; carboxy-terminal STREP2 followed by FLAG; also called RCC1L^V1-FLAG; WBSCR16 isoform V1; source: inducible transgenic HEK cell line (doxycycline), in lysate of purified mitochondria; not shown: STREP2, C-terminal, …
Assay: co-IP; STREP2-FLAG-tagged RCC1L isoform as bait, captured on Strep-Tactin Sepharose overnight from trypsin-treated, sucrose gradient-purified HEK mitochondria lysed with 0.8% DDM; 10 washes; elution with 10 mM desthiobiotin; endogenous proteins in the elution found by immunoblot
Conditions: partners not purified

T1 sequence (Q96I51 38-464): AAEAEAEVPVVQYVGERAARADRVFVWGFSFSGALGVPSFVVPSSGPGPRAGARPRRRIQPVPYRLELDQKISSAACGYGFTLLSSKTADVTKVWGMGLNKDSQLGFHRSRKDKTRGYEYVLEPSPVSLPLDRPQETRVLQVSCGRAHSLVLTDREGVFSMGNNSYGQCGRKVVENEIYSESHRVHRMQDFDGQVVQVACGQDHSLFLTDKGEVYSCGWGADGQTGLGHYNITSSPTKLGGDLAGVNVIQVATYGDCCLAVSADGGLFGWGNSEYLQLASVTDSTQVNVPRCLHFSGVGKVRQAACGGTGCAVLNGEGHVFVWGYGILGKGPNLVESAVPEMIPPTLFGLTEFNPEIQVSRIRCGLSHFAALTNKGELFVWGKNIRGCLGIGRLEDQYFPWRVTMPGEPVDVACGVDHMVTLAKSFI

fold enrichment in the pull-down over MTG1: 5 fold
fold enrichment in the pull-down over MTG2: 4 fold
B1: GTPBP10 (enzyme, human (endogenous in HEK293T), UniProt A4D1E9 1-387, looked up)
chain: MVHCSCVLFRKYGNFIDKLRLFTRGGSGGMGYPRLGGEGGKGGDVWVVAQNRMTLKQLKDRYPRKRFVAGVGANSKISALKGSKGKDCEIPVPVGISVTDENGKIIGELNKENDRILVAQGGLGGKLLTNFLPLKGQKRIIHLDLKLIADVGLVGFPNAGKSSLLSCVSHAKPAIADYAFTTLKPELGKIMYSDFKQISVADLPGLIEGAHMNKGMGHKFLKHIERTRQLLFVVDISGFQLSSHTQYRTAFETIILLTKELELYKEELQTKPALLAVNKMDLPDAQDKFHELMSQLQNPKDFLHLFEKNMIPERTVEFQHIIPISAVTGEGIEELKNCIRKSLDEQANQENDALHKKQLLNLWISDTMSSTEPPSKHAVTTSKMDII
notes: GTPBP10, mitochondrial GTPase of mtLSU assembly, human; endogenous mitochondrial protein; source: endogenous, lysate of purified HEK mitochondria

Source: publication PMC7423155, “RCC1L (WBSCR16) isoforms coordinate mitochondrial ribosome assembly through their interaction with GTPases” (PLoS Genetics, 2020)
